The values below come from US20090098127A1 (MEDICAL RESEARCH FUND OF TEL AVIV SOURASKY MEDICAL CENTER, published 2009).

The target in test [1] is T1, hypoxia-inducible factor 1, alpha subunit isoform 1 (HIF-1α), untagged (human, UniProt Q16665 1-826).
T1 construct: Stands for both endogenous HIF-1α (PC-3, CL-1, HEK 293) and the untagged wild-type protein expressed from pcDNA3.1-HIF-1α; also called HIF-1 alpha; pcDNA3.1-HIF-1α product
In words: IP with HIF-1α antibody, Flag immunoblot, HEK 293 cells. (A western blot detects proteins with antibodies after separation by electrophoresis.)

Test [2] addresses T1, hypoxia-inducible factor 1, alpha …. In words: cell-based or functional assay.
Another test addresses T2, HIF-1β (UniProt P27540 2-789, limits assumed).
T2 construct: Endogenous protein in HEK 293 lysates; also called HIF-1β protein
In words: co-IP with anti-Flag antibody, HIF-1β immunoblot, HEK 293 cells. An excerpt:
FIGS. 3a-f are autoradiograms illustrating HIF-1α immunoblotting of FLAG immunoprecipitates (IP) (FIG. 3b) or whole cell extracts (WCE) (FIG. 3a), FLAG immunoblotting of HIF-1α IP (FIG. 3d) or WCE (FIG. 3c), and HIF-1β immunoblotting of FLAG IP (FIG. 3f) or WCE (FIG. 3e). HEK 293 cells were transiently co-transfected with two of the following expression vectors: p3×Flag-cmv-25 (EV), pcdna3.1-HIF-1α (HIF-1α) or p3×Flag-MSF-A (MSF-A), and two days following transfection under normoxic conditions WCE or IP were subjected to immunoblot (IB) analysis. Lane 1-EV and HIF-1α; lane 2-MSF-A and HIF-1α.
To confirm the interaction between the HIF-1α and the MSF-A proteins, HEK 293 cells were transiently co-transfected with the p3×Flag-MSF-A and the pcDNA3.1-HIF-1α vectors, and were grown for 24 hours under normoxic conditions (i.e., conditions of 20% oxygen), following which whole cell extracts (WCE) were subjected to co-immunoprecipitation (IP) using anti-FLAG or anti-HIF-1α antibodies. Following IP, the proteins were subjected to SDS-PAGE and immunoblotting (IB) using the counterpart antibody. As is shown in FIGS. 3a-d, following transfection with both expression vectors (i.e., pcDNA3.1-HIF-1α and p3×Flag-MSF-A) immunoprecipitates generated using either the anti-HIF-1α antibody or the anti-Flag antibody included the reciprocal proteins, i.e., the Flag-MSF-A or HIF-1α proteins, respectively.

Another test has as its target T3, p300 co-activator (UniProt Q09472 2-2414).
T3 construct: Endogenous protein, detected with anti-p300 antibody (Santa Cruz); also called p300 protein
In words: co-IP with anti-Flag antibody, p300 immunoblot; association within the HIF-1α complex, may be indirect. Here is the method:
The p300 co-activator is associated with HIF-1α and MSF-A proteins—To test the hypothesis that proteins, which are known to interact with the HIF-1α protein, such as the co-activator p300, are associated with MSF-A and HIF-1α, cells were co-transfected with the pcDNA3.1-HIF-1α and the p3×Flag-MSF-A expression vectors and IP experiments were performed using either anti-FLAG or anti-HIF-1α antibodies. As shown in FIGS. 5a-c, while the anti-HIF-1α antibody was capable of precipitating the p300 protein in both cells co-transfected with the pcDNA3.1-HIF-1α and the p3×Flag-cmv-25 expression vector alone and cells co-transfected with the pcDNA3.1-HIF-1α and the p3×Flag-MSF-A vectors, the anti-Flag antibody was capable of precipitating the p300 protein only in cells that were co-transfected with the pcDNA3.1-HIF-1α and the p3×Flag-MSF-A vectors.

T1 sequence (Q16665 whole entry, canonical isoform): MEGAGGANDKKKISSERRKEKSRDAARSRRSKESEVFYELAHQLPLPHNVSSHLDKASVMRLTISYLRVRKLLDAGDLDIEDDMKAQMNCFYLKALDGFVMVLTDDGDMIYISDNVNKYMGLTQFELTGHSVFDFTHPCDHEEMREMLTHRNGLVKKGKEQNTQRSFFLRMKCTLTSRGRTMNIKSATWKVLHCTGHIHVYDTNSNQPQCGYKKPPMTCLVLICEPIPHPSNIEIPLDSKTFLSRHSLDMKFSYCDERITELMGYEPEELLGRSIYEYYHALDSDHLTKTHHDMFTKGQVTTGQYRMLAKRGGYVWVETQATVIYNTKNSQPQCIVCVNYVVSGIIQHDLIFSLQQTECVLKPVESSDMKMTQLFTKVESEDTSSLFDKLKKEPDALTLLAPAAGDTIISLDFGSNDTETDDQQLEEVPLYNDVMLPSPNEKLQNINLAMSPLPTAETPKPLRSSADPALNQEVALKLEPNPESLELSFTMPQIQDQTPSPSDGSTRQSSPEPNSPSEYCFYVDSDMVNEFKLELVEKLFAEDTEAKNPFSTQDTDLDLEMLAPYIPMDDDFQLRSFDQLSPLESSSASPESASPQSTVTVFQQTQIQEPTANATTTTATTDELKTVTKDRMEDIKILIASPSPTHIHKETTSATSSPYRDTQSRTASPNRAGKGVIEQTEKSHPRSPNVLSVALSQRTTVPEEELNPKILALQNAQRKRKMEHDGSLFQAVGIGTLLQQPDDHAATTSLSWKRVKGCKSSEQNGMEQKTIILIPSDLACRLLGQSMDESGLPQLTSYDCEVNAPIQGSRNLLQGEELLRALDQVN
T2 sequence (P27540 2-789 limits assumed): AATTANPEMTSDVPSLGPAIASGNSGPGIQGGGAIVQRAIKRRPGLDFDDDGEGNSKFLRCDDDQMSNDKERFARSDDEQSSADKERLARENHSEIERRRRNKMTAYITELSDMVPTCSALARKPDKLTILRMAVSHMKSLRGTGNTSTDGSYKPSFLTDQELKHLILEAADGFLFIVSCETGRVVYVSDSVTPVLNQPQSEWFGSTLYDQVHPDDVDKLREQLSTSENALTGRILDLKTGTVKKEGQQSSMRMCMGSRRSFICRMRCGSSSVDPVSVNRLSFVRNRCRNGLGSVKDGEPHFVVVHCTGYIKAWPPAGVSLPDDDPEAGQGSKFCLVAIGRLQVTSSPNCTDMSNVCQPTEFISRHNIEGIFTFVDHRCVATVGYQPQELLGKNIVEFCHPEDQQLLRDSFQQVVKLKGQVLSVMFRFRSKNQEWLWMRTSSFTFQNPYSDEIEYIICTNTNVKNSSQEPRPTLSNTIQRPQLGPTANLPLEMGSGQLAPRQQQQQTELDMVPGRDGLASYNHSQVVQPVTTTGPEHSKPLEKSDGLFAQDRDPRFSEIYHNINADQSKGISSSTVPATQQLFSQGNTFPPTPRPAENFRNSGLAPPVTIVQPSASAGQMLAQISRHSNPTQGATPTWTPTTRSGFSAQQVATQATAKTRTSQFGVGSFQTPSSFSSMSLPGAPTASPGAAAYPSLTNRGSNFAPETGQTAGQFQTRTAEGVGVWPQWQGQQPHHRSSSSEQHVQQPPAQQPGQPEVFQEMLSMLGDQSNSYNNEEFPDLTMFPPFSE
T3 sequence (Q09472 2-2414 limits assumed): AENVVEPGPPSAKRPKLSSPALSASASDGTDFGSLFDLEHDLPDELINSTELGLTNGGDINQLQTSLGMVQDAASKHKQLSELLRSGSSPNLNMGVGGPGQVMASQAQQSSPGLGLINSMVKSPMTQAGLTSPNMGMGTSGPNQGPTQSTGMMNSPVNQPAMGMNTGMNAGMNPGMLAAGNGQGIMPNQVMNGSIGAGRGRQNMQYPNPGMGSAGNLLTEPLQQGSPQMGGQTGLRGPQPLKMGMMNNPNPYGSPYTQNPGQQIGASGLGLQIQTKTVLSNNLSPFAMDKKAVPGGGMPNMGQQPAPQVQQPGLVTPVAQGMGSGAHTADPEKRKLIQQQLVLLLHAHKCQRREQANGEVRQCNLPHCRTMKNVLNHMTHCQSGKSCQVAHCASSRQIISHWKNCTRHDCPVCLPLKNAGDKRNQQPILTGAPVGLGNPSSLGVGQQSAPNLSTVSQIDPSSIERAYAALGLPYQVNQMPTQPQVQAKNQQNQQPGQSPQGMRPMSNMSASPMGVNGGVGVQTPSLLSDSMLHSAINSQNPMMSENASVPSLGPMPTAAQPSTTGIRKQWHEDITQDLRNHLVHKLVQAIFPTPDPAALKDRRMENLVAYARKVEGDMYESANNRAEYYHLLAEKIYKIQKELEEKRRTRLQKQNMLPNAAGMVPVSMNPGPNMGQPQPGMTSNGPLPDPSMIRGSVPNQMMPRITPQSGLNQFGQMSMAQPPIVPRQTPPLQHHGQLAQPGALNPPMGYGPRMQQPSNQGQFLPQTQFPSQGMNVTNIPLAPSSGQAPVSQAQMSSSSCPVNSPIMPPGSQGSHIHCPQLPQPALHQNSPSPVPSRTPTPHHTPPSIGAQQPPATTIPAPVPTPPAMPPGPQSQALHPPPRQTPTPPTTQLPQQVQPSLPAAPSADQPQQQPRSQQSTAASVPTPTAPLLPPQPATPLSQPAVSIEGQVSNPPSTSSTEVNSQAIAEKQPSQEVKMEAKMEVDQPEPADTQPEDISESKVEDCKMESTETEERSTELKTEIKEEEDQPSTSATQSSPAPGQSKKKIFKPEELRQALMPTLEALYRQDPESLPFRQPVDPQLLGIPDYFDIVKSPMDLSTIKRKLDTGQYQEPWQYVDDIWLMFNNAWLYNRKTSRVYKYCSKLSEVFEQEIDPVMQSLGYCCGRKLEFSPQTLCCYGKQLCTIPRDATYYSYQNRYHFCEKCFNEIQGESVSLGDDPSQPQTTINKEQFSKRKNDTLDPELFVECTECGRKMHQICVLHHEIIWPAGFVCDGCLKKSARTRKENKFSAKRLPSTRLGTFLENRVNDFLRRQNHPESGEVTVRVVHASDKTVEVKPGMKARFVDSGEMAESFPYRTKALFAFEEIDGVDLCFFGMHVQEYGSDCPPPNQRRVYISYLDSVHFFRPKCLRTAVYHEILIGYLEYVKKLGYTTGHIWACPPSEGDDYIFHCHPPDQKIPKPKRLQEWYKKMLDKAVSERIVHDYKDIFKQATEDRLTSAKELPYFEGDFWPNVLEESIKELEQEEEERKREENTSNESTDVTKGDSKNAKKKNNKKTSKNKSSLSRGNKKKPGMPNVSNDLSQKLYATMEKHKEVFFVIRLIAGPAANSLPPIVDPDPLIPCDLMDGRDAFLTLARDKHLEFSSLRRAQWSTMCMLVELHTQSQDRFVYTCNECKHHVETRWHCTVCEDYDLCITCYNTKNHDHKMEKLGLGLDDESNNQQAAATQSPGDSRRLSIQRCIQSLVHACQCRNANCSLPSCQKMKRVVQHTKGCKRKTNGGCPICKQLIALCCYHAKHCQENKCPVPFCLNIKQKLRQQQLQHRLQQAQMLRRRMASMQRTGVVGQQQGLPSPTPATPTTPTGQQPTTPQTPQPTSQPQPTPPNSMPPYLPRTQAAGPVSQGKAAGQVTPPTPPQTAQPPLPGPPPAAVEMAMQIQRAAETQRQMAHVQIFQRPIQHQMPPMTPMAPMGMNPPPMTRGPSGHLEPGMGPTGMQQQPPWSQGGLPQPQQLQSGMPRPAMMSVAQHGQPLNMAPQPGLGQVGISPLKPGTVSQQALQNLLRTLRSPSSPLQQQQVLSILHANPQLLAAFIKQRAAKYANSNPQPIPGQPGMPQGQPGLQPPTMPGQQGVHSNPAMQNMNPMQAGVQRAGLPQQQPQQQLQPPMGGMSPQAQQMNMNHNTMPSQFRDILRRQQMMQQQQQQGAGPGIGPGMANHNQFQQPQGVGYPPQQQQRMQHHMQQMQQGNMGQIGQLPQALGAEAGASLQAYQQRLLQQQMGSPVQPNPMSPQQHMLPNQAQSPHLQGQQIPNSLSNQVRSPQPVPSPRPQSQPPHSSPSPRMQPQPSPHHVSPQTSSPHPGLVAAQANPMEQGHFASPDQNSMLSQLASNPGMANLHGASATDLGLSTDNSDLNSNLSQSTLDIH

B1: Flag-ΔG-MSF-A (p3×Flag-ΔG-MSF-A product) (other)
chain: MKKSYSGGTRTSSGRLRRLGDSSGPALKRSFEVEEVETPNSTPPRRVQTPLLRATVASSTQKFQDLGVKNSEPSARHVDSLSQRSPKASLRRVELSGPKAAEPVSRRTELSIDISSKQVENAGAIGPSRFGLKRAEVLGHKTPEPAPRRTEITIVKPQESAHRRMEPPASKVPEVPTAPATDAAPKRVEIQMPKPAEAPTAPSPAQTLENSEPAPVSQLQSRLEPKPQPPVAEATPRSQEATEAAPSCVGDMADTPRDAGLKQAPASRNEKAPVDFGYVGIDSILEQMRRKAMKQGFEFNIMVVTLINTLFKSKISRKSVQPTSEERIPKTIEIKSITHDIEEKGVRMKLTVIDTPGFGDHINNENCWQPIMKFINDQYEKYLQEEVNINRKKRIPDTRVHCCLYFIPATGHSLRPLDIEFMKRLSKVVNIVPVIAKADTLTLEERVHFKQRITADLLSNGIDVYPQKEFDEDSEDRLVNEKFREMIPFAVVGSDHEYQVNGKRILGRKTKWGTIEVENTTHCEFAYLRDLLIRTHMQNIKDITSSIHFEAYRVKRLNEGSSAMANGVEEKEPEAPEM
notes: also called AG-MSF-A; not shown: N-terminal Flag tag from vector p3×Flag-myc-CMV-25
Regarding B1, the binding result in test [1] was “binds”.

B2: Flag-ΔN-MSF-A (p3×Flag-ΔN-MSF-A product) (other)
chain: ALKRSFEVEEVETPNSTPPRRVQTPLLRATVASSTQKFQDLGVKNSEPSARHVDSLSQRSPKASLRRVELSGPKAAEPVSRRTELSIDISSKQVENAGAIGPSRFGLKRAEVLGHKTPEPAPRRTEITIVKPQESAHRRMEPPASKVPEVPTAPATDAAPKRVEIQMPKPAEAPTAPSPAQTLENSEPAPVSQLQSRLEPKPQPPVAEATPRSQEATEAAPSCVGDMADTPRDAGLKQAPASRNEKAPVDFGYVGIDSILEQMRRKAMKQGFEFNIMVVGQSGLGKSTLINTLFKSKISRKSVQPTSEERIPKTIEIKSITHDIEEKGVRMKLTVIDTPGFGDHINNENCWQPIMKFINDQYEKYLQEEVNINRKKRIPDTRVHCCLYFIPATGHSLRPLDIEFMKRLSKVVNIVPVIAKADTLTLEERVHFKQRITADLLSNGIDVYPQKEFDEDSEDRLVNEKFREMIPFAVVGSDHEYQVNGKRILGRKTKWGTIEVENTTHCEFAYLRDLLIRTHMQNIKDITSSIHFEAYRVKRLNEGSSAMANGVEEKEPEAPEM
notes: Deletion of the first 25 amino acids of MSF-A; also called N-terminal truncated form of MSF-A; not shown: N-terminal Flag tag from vector p3×FLAG-myc-CMV-25
As to B2, the binding result in test [1] is “binds”.

B3: Flag-MSF-A (p3×Flag-MSF-A product, wild type) (other, not shown: small tags and cut ends)
chain: MKKSYSGGTRTSSGRLRRLGDSSGPALKRSFEVEEVETPNSTPPRRVQTPLLRATVASSTQKFQDLGVKNSEPSARHVDSLSQRSPKASLRRVELSGPKAAEPVSRRTELSIDISSKQVENAGAIGPSRFGLKRAEVLGHKTPEPAPRRTEITIVKPQESAHRRMEPPASKVPEVPTAPATDAAPKRVEIQMPKPAEAPTAPSPAQTLENSEPAPVSQLQSRLEPKPQPPVAEATPRSQEATEAAPSCVGDMADTPRDAGLKQAPASRNEKAPVDFGYVGIDSILEQMRRKAMKQGFEFNIMVVGQSGLGKSTLINTLFKSKISRKSVQPTSEERIPKTIEIKSITHDIEEKGVRMKLTVIDTPGFGDHINNENCWQPIMKFINDQYEKYLQEEVNINRKKRIPDTRVHCCLYFIPATGHSLRPLDIEFMKRLSKVVNIVPVIAKADTLTLEERVHFKQRITADLLSNGIDVYPQKEFDEDSEDRLVNEKFREMIPFAVVGSDHEYQVNGKRILGRKTKWGTIEVENTTHCEFAYLRDLLIRTHMQNIKDITSSIHFEAYRVKRLNEGSSAMANGVEEKEPEAPEM
notes: FLAG at the amino terminal of the recombinant protein; Expressed in HEK 293 or PC-3 cells and assayed in lysates; also called Flag-tagged MSF-A; recombinant MSF-A
For B3, in test [2], the “degradation half-life of HIF-1α (cycloheximide, PC-3-MSF-A cells against PC-3-Neo cells)” value turned out to be 40 min; the “half-life of HIF-1α protein (pulse-chase, PC-3-MSF-A cells against PC-3-Neo cells)” value is around 45 min; the “luciferase activity (HRE reporter), hypoxia as compared to normoxia, PC-3 cells” value was found to be 50 fold. Further, in the test with HIF-1β, the binding result is recorded as “no binding”. In the test with p300 co-activator, the binding result is reported as “binds”.
